Assay results: PMC9482650, “Quantitative fragmentomics allow affinity mapping of interactomes” (Nature Communications, 2022)

T1: CARD11, Q9BXL7
T1 sequence (Q9BXL7 662-765, limits assumed, looked up): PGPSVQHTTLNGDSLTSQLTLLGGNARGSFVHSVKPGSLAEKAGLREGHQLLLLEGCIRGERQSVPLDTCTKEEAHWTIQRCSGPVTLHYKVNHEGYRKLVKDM

T2: APBA1_2, Q02410
T2 sequence (Q02410 742-832, limits assumed, looked up): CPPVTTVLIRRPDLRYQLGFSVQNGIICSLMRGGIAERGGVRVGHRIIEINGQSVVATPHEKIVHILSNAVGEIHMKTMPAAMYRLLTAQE

T3: MPDZ_12, O75970
T3 sequence (O75970 1857-1958, limits assumed, looked up): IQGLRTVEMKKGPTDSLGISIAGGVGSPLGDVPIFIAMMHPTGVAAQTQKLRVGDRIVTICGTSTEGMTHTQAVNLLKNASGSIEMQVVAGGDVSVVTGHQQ

T4: NHERF3_4, Q5T2W1
T4 sequence (Q5T2W1 373-468, limits assumed, looked up): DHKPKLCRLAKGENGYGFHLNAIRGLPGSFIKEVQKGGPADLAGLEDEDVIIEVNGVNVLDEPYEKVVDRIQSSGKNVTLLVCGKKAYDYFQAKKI

T5: LIN7A, O14910
T5 sequence (O14910 103-200, limits assumed, looked up): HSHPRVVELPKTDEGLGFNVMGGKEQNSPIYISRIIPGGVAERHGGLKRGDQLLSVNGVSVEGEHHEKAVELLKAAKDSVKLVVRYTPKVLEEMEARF

T6: SHANK1, Q9Y566
T6 sequence (Q9Y566 658-767, limits assumed, looked up): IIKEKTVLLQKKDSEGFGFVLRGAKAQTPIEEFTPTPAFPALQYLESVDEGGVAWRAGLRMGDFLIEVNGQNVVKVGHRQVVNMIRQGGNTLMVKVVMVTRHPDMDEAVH

T7: LNX2_3, Q8N448
T7 sequence (Q8N448 463-564, limits assumed, looked up): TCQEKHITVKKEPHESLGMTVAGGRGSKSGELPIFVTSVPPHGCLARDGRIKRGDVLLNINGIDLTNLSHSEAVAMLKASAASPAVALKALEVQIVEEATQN

T8: PDZD2_2, O15018
T8 sequence (O15018 329-429, limits assumed, looked up): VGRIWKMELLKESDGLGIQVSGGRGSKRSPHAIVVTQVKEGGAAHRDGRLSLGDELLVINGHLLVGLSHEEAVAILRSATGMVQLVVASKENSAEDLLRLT

T9: RAPGEF6, Q8TEU7
T9 sequence (Q8TEU7 525-625, limits assumed, looked up): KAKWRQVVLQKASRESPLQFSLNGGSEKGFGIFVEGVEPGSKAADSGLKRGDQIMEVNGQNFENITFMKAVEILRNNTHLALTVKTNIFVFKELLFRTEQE


biological target: PARD3_3, Q8TEW0; experiment: holdup assay; parameters: key: below the threshold = too weak to quantify, mostly under pKd 3.1 to 4; details: plain residues with an end cap or a label only (N-terminal biotin on a linker: ado-ado)
Sequence (Q8TEW0 582-685): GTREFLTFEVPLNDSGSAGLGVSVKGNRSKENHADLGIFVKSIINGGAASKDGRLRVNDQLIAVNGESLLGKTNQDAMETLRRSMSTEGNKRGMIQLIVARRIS

Row | pKd | Binder
1 | below the threshold | GQETPLNTFC [MAP7D2, Q96T17]

biological target: T1, CARD11, Q9BXL7; experiment: holdup assay; parameters: key: below the threshold = too weak to quantify, mostly under pKd 3.1 to 4; details: plain residues with an end cap or a label only (N-terminal biotin on a linker: ado-ado)

Row | pKd | Binder
2 | below the threshold | GQETPLNTFC [MAP7D2, Q96T17]

biological target: GRIP2_6, Q9C0E4; experiment: holdup assay; parameters: key: below the threshold = too weak to quantify, mostly under pKd 3.1 to 4; details: plain residues with an end cap or a label only (N-terminal biotin on a linker: ado-ado)
Sequence (Q9C0E4 648-740): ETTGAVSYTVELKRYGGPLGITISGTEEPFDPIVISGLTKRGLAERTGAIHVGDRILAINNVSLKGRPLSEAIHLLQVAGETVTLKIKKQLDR

Row | pKd | Binder
3 | below the threshold | GQETPLNTFC [MAP7D2, Q96T17]

biological target: GRASP, Q7Z6J2; experiment: holdup assay; parameters: key: below the threshold = too weak to quantify, mostly under pKd 3.1 to 4; details: plain residues with an end cap or a label only (N-terminal biotin on a linker: ado-ado)
Sequence (Q7Z6J2 96-193): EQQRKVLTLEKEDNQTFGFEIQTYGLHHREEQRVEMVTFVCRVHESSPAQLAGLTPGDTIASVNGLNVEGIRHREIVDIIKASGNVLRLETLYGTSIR

Row | pKd | Binder
4 | below the threshold | GQETPLNTFC [MAP7D2, Q96T17]

biological target: NHERF4_1, Q86UT5-2; experiment: holdup assay; parameters: key: below the threshold = too weak to quantify, mostly under pKd 3.1 to 4; details: plain residues with an end cap or a label only (N-terminal biotin on a linker: ado-ado)
Sequence (Q86UT5 other isoform, or with tags, fused parts or gaps): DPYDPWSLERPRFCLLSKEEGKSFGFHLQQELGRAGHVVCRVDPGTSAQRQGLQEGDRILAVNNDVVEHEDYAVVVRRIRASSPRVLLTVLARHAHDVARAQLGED

Row | pKd | Binder
5 | 3.6 | GQETPLNTFC [MAP7D2, Q96T17]

biological target: IL16_4, Q14005; experiment: holdup assay; parameters: key: below the threshold = too weak to quantify, mostly under pKd 3.1 to 4; details: plain residues with an end cap or a label only (N-terminal biotin on a linker: ado-ado)
Sequence (Q14005 1229-1329): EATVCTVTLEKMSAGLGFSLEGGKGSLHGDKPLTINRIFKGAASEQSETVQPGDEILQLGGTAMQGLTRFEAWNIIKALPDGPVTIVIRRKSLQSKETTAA

Row | pKd | Binder
6 | below the threshold | GQETPLNTFC [MAP7D2, Q96T17]

biological target: Inadl_8, Q8NI35; experiment: holdup assay; parameters: key: below the threshold = too weak to quantify, mostly under pKd 3.1 to 4; details: plain residues with an end cap or a label only (N-terminal biotin on a linker: ado-ado)
Sequence (Q8NI35 1425-1530): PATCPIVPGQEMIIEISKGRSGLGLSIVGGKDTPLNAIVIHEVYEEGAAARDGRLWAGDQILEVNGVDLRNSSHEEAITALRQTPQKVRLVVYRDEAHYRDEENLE

Row | pKd | Binder
7 | below the threshold | GQETPLNTFC [MAP7D2, Q96T17]

biological target: T2, APBA1_2, Q02410; experiment: holdup assay; parameters: key: below the threshold = too weak to quantify, mostly under pKd 3.1 to 4; details: plain residues with an end cap or a label only (N-terminal biotin on a linker: ado-ado)

Row | pKd | Binder
8 | below the threshold | GQETPLNTFC [MAP7D2, Q96T17]

biological target: LNX1_3, Q8TBB1; experiment: holdup assay; parameters: key: below the threshold = too weak to quantify, mostly under pKd 3.1 to 4; details: plain residues with an end cap or a label only (N-terminal biotin on a linker: ado-ado)
Sequence (Q8TBB1 500-596): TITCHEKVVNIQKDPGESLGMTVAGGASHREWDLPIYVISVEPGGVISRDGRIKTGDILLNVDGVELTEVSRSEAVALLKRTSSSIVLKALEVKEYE

Row | pKd | Binder
9 | below the threshold | GQETPLNTFC [MAP7D2, Q96T17]

biological target: T3, MPDZ_12, O75970; experiment: holdup assay; parameters: key: below the threshold = too weak to quantify, mostly under pKd 3.1 to 4; details: plain residues with an end cap or a label only (N-terminal biotin on a linker: ado-ado)

Row | pKd | Binder
10 | below the threshold | GQETPLNTFC [MAP7D2, Q96T17]

biological target: T4, NHERF3_4, Q5T2W1; experiment: holdup assay; parameters: key: below the threshold = too weak to quantify, mostly under pKd 3.1 to 4; details: plain residues with an end cap or a label only (N-terminal biotin on a linker: ado-ado)

Row | pKd | Binder
11 | below the threshold | GQETPLNTFC [MAP7D2, Q96T17]

biological target: SNX27, Q96L92; experiment: holdup assay; parameters: key: below the threshold = too weak to quantify, mostly under pKd 3.1 to 4; details: plain residues with an end cap or a label only (N-terminal biotin on a linker: ado-ado)

Row | pKd | Binder
12 | 3.49 | GQETPLNTFC [MAP7D2, Q96T17]

biological target: LIMK2, P53671; experiment: holdup assay; parameters: key: below the threshold = too weak to quantify, mostly under pKd 3.1 to 4; details: plain residues with an end cap or a label only (N-terminal biotin on a linker: ado-ado)
Sequence (P53671 143-248): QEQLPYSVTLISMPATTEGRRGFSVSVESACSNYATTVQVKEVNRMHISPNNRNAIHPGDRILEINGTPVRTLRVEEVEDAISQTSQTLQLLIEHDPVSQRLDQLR

Row | pKd | Binder
13 | below the threshold | GQETPLNTFC [MAP7D2, Q96T17]

biological target: MAGI1_1, Q96QZ7; experiment: holdup assay; parameters: key: below the threshold = too weak to quantify, mostly under pKd 3.1 to 4; details: plain residues with an end cap or a label only (N-terminal biotin on a linker: ado-ado)
Sequence (Q96QZ7 1-106): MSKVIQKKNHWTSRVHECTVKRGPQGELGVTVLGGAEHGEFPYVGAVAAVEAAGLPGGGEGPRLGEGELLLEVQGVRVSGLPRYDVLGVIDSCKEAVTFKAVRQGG

Row | pKd | Binder
14 | below the threshold | GQETPLNTFC [MAP7D2, Q96T17]

biological target: Inadl_3, Q8NI35; experiment: holdup assay; parameters: key: below the threshold = too weak to quantify, mostly under pKd 3.1 to 4; details: plain residues with an end cap or a label only (N-terminal biotin on a linker: ado-ado)
Sequence (Q8NI35 359-469): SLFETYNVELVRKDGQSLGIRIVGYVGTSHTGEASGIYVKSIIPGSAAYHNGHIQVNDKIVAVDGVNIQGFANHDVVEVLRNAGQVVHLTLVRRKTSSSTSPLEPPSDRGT

Row | pKd | Binder
15 | below the threshold | GQETPLNTFC [MAP7D2, Q96T17]

biological target: DLG4_3, P78352; experiment: holdup assay; parameters: key: below the threshold = too weak to quantify, mostly under pKd 3.1 to 4; details: plain residues with an end cap or a label only (N-terminal biotin on a linker: ado-ado)
Sequence (P78352 306-403): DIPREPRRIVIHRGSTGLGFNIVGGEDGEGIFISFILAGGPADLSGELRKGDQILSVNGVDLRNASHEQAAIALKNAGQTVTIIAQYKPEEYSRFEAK

Row | pKd | Binder
16 | 3.6 | GQETPLNTFC [MAP7D2, Q96T17]

biological target: T5, LIN7A, O14910; experiment: holdup assay; parameters: key: below the threshold = too weak to quantify, mostly under pKd 3.1 to 4; details: plain residues with an end cap or a label only (N-terminal biotin on a linker: ado-ado)

Row | pKd | Binder
17 | below the threshold | GQETPLNTFC [MAP7D2, Q96T17]

biological target: Inadl_9, Q8NI35; experiment: holdup assay; parameters: key: below the threshold = too weak to quantify, mostly under pKd 3.1 to 4; details: plain residues with an end cap or a label only (N-terminal biotin on a linker: ado-ado)
Sequence (Q8NI35 1530-1615): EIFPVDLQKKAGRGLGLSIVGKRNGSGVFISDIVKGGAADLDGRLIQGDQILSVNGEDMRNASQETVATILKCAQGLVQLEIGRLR

Row | pKd | Binder
18 | below the threshold | GQETPLNTFC [MAP7D2, Q96T17]

biological target: GRIP2_4, Q9C0E4; experiment: holdup assay; parameters: key: below the threshold = too weak to quantify, mostly under pKd 3.1 to 4; details: plain residues with an end cap or a label only (N-terminal biotin on a linker: ado-ado)
Sequence (Q9C0E4 446-548): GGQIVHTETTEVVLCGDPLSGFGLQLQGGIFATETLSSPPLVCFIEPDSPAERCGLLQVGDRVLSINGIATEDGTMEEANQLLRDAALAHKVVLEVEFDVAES

Row | pKd | Binder
19 | below the threshold | GQETPLNTFC [MAP7D2, Q96T17]

biological target: T6, SHANK1, Q9Y566; experiment: holdup assay; parameters: key: below the threshold = too weak to quantify, mostly under pKd 3.1 to 4; details: plain residues with an end cap or a label only (N-terminal biotin on a linker: ado-ado)

Row | pKd | Binder
20 | below the threshold | GQETPLNTFC [MAP7D2, Q96T17]

biological target: NHERF2_2, Q15599; experiment: holdup assay; parameters: key: below the threshold = too weak to quantify, mostly under pKd 3.1 to 4; details: plain residues with an end cap or a label only (N-terminal biotin on a linker: ado-ado)
Sequence (Q15599 142-238): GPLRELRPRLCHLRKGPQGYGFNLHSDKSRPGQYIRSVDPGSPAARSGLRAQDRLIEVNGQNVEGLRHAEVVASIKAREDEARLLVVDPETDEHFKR

Row | pKd | Binder
21 | 3.94 | GQETPLNTFC [MAP7D2, Q96T17]

biological target: HTRA2, O43464; experiment: holdup assay; parameters: key: below the threshold = too weak to quantify, mostly under pKd 3.1 to 4; details: plain residues with an end cap or a label only (N-terminal biotin on a linker: ado-ado)
Sequence (O43464 355-458): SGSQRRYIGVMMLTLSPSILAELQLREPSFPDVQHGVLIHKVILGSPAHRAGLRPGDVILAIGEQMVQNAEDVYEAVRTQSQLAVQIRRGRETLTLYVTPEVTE

Row | pKd | Binder
22 | below the threshold | GQETPLNTFC [MAP7D2, Q96T17]

biological target: T7, LNX2_3, Q8N448; experiment: holdup assay; parameters: key: below the threshold = too weak to quantify, mostly under pKd 3.1 to 4; details: plain residues with an end cap or a label only (N-terminal biotin on a linker: ado-ado)

Row | pKd | Binder
23 | below the threshold | GQETPLNTFC [MAP7D2, Q96T17]

biological target: T8, PDZD2_2, O15018; experiment: holdup assay; parameters: key: below the threshold = too weak to quantify, mostly under pKd 3.1 to 4; details: plain residues with an end cap or a label only (N-terminal biotin on a linker: ado-ado)

Row | pKd | Binder
24 | 4.03 | GQETPLNTFC [MAP7D2, Q96T17]

biological target: T9, RAPGEF6, Q8TEU7; experiment: holdup assay; parameters: key: below the threshold = too weak to quantify, mostly under pKd 3.1 to 4; details: plain residues with an end cap or a label only (N-terminal biotin on a linker: ado-ado)

Row | pKd | Binder
25 | below the threshold | GQETPLNTFC [MAP7D2, Q96T17]

biological target: TJP2_1, Q9UDY2; experiment: holdup assay; parameters: key: below the threshold = too weak to quantify, mostly under pKd 3.1 to 4; details: plain residues with an end cap or a label only (N-terminal biotin on a linker: ado-ado)
Sequence (Q9UDY2 24-128): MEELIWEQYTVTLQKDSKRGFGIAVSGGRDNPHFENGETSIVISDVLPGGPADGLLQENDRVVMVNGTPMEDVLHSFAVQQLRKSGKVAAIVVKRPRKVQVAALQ

Row | pKd | Binder
26 | below the threshold | GQETPLNTFC [MAP7D2, Q96T17]

biological target: SCRIB_1, Q14160; experiment: holdup assay; parameters: key: below the threshold = too weak to quantify, mostly under pKd 3.1 to 4; details: plain residues with an end cap or a label only (N-terminal biotin on a linker: ado-ado)
Sequence (Q14160 718-814): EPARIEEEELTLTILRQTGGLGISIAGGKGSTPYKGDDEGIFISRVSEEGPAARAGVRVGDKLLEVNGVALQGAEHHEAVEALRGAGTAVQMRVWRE

Row | pKd | Binder
27 | 3.88 | GQETPLNTFC [MAP7D2, Q96T17]

biological target: MAGI2_2, Q86UL8; experiment: holdup assay; parameters: key: below the threshold = too weak to quantify, mostly under pKd 3.1 to 4; details: plain residues with an end cap or a label only (N-terminal biotin on a linker: ado-ado)
Sequence (Q86UL8 410-522): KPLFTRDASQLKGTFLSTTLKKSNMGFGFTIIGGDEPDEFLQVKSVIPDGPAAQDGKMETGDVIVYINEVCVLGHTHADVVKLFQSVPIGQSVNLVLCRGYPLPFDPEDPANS

Row | pKd | Binder
28 | below the threshold | GQETPLNTFC [MAP7D2, Q96T17]

biological target: DLG5_1, Q8TDM6; experiment: holdup assay; parameters: key: below the threshold = too weak to quantify, mostly under pKd 3.1 to 4; details: plain residues with an end cap or a label only (N-terminal biotin on a linker: ado-ado)
Sequence (Q8TDM6 617-713): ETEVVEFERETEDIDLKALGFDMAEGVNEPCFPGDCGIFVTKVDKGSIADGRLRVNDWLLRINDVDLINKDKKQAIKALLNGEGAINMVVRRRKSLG

Row | pKd | Binder
29 | below the threshold | GQETPLNTFC [MAP7D2, Q96T17]
